Measurements: patent US20190300618A1 (Merck Sharp & Dohme, published 2019)

Columns and labels:
[1] = molecular target: human CD27 (wild type), expressed on cells (human) (UniProt P26842); assay: flow cytometry, transiently transfected CHO-K1; empty vector: GM FITC 212
[2] = molecular target: human CD27 (A59T), expressed on cells (human) (UniProt P26842); assay: as above
[3] = molecular target: human CD27 (wild type), expressed on cells (human) (UniProt P26842); assay: flow cytometry, transiently transfected CHO-K1; empty vector: + 5.32
[4] = molecular target: human CD27 (A59T), expressed on cells (human) (UniProt P26842); assay: as above
[5] = molecular target: T1, human CD27 (wild type), expressed on cells (human, UniProt P26842 21-260); assay: flow cytometry on primary T cells
T1 construct: on transfected CHO-K1 / CHOK1 cells, transfected HEK293FT reporter cells or primary human T cells; also called hCD27; HsCD27
Experimental: Labeled cells were washed by re-suspending them in 150 ul of staining buffer (SB) followed by centrifugation at 300 g for 5 minutes. Cells were then resuspended in 100 ul of SB containing primary anti-CD27 antibodies at various concentrations, incubated in the dark at 4° C. for 30 minutes, followed by washing and centrifugation steps as previously described. […] Cells were incubated for 30 minutes at 4° C. in the dark, followed by washing and centrifugation steps. Next, cells were stained with a cocktail of phenotypic antibodies for surface markers (CD3, CD4, CD8, CD11b) and incubated for 30 minutes at 4° C. in the dark, followed by washing and centrifugation steps. […] Samples were acquired in a LSR-Fortessa flow cytometer (BD Biosciences) using the high throughput sampler and data analyzed by FlowJo software (Tree Star Inc).

Row | Molecule | EC50 above that of 131AVH6VL6-hIgG1 [5] [%] | other results
1 | Fc-mCD70 (Fc fusion) |  | GM FITC [1]: 1280; GM FITC [2]: 1060; cells in the + gate [3]: 58.9%; cells in the + gate [4]: 52.5%
2 | Humanized CD27 131A VH6/VL7-hIgG1 (antibody, V domains shown, human IgG1 constant region; also called hCD27.131A VH6VL7 hulgG1) VH: EIQLVQSGAEVKKPGASVKVSCKASGYTFTNYGMNWVKQAPGQGLKWMGWINTNTGEPTYAEEFKGRFTFTLDTSISTAYMELSSLRSEDTAVYYCAREGDAMDYWGQGTTVTVSS VL: EIVLTQSPATLSLSPGERATLSCSASSSVSYMHWYQQKPGQAPKRWIYDTSKLASGVPARFSGSGSGTSYSLTISSLEPEDFATYYCQQWNSYPFTFGQGTKLEIK | ≤ 10 | 
3 | Humanized CD27 131A VH9/VL9-hIgG1 (antibody, V domains shown, human IgG1 constant region; also called hCD27.131A VH9VL9 hulgG1) VH: EIQLVQSGAEVKKPGASVKVSCKASGYTFTNYGMNWVRQAPGQGLKWMGWINTNTGEPTYAEEFKGRFTFTLDTSASTAYMELSSLRSEDTAVYYCAREGDAMDYWGQGTTVTVSS VL: DIQLTQSPSTLSASVGDRVTITCSASSSVSYMHWYQQKPGKAPKRWIYDTSKLASGVPARFSGSGSGTDYTLTISSLQPEDFATYYCQQWNSYPFTFGQGTKLEIK | ≤ 10 | 
4 | Humanized CD27 131A VH7/VL8-hIgG1 (antibody, V domains shown, human IgG1 constant region; also called hCD27.131A VH7VL8 hulgG1) VH: EIQLVQSGAEVKKPGASVKISCKASGYTFTNYGMNWVKQAPGQGLKWMGWINTNTGEPTYAEEFKGRFTFTLDTSATTAYLEISSLRSEDTAVYYCAREGDAMDYWGQGTTVTVSS VL: EIVLTQSPATLSASPGERVTLSCSASSSVSYMHWYQQKPGQAPKRWIYDTSKLASGVPARFSGSGSGTDYSLTISSMEPEDFAVYYCQQWNSYPFTFGQGTKLEIK | ≤ 10 | 
5 | Humanized CD27 131A VH8/VL7-hIgG1 (antibody, V domains shown, human IgG1 constant region; also called hCD27.131A VH8VL7 hulgG1) VH: EIQLVQSGAEVKKPGASVKVSCKASGYTFTNYGMNWVKQAPGQGLKWMGWINTNTGEPTYAEEFKGRFTFTLDTSISTAYMELSSLRNEDTAVYYCAREGDAMDYWGQGTTVTVSS VL: EIVLTQSPATLSLSPGERATLSCSASSSVSYMHWYQQKPGQAPKRWIYDTSKLASGVPARFSGSGSGTSYSLTISSLEPEDFATYYCQQWNSYPFTFGQGTKLEIK | ≤ 10 | 
6 | Humanized CD27 131A VH8/VL8-hIgG1 (antibody, V domains shown, human IgG1 constant region; also called hCD27.131A VH8VL8 hulgG1) VH: EIQLVQSGAEVKKPGASVKVSCKASGYTFTNYGMNWVKQAPGQGLKWMGWINTNTGEPTYAEEFKGRFTFTLDTSISTAYMELSSLRNEDTAVYYCAREGDAMDYWGQGTTVTVSS VL: EIVLTQSPATLSASPGERVTLSCSASSSVSYMHWYQQKPGQAPKRWIYDTSKLASGVPARFSGSGSGTDYSLTISSMEPEDFAVYYCQQWNSYPFTFGQGTKLEIK | ≤ 10 | 
7 | Humanized CD27 131A VH8/VL6-hIgG1 (antibody, V domains shown, human IgG1 constant region; also called hCD27.131A VH8VL6 hulgG1) VH: EIQLVQSGAEVKKPGASVKVSCKASGYTFTNYGMNWVKQAPGQGLKWMGWINTNTGEPTYAEEFKGRFTFTLDTSISTAYMELSSLRNEDTAVYYCAREGDAMDYWGQGTTVTVSS VL: EIVLTQSPATLSLSPGERATLSCSASSSVSYMHWYQQKPGQAPKRWIYDTSKLASGVPARFSGSGSGTDYSLTISSLEPEDFAVYYCQQWNSYPFTFGQGTKLEIK | ≤ 10 | 
8 | Humanized CD27 131A VH7/VL6-hIgG1 (antibody, V domains shown, human IgG1 constant region; also called hCD27.131A VH7VL6 hulgG1) VH: EIQLVQSGAEVKKPGASVKISCKASGYTFTNYGMNWVKQAPGQGLKWMGWINTNTGEPTYAEEFKGRFTFTLDTSATTAYLEISSLRSEDTAVYYCAREGDAMDYWGQGTTVTVSS VL: EIVLTQSPATLSLSPGERATLSCSASSSVSYMHWYQQKPGQAPKRWIYDTSKLASGVPARFSGSGSGTDYSLTISSLEPEDFAVYYCQQWNSYPFTFGQGTKLEIK | ≤ 10 | 
9 | Humanized CD27 131A VH7/VL7-hIgG1 (antibody, V domains shown, human IgG1 constant region; also called hCD27.131A VH7VL7 hulgG1) VH: EIQLVQSGAEVKKPGASVKISCKASGYTFTNYGMNWVKQAPGQGLKWMGWINTNTGEPTYAEEFKGRFTFTLDTSATTAYLEISSLRSEDTAVYYCAREGDAMDYWGQGTTVTVSS VL: EIVLTQSPATLSLSPGERATLSCSASSSVSYMHWYQQKPGQAPKRWIYDTSKLASGVPARFSGSGSGTSYSLTISSLEPEDFATYYCQQWNSYPFTFGQGTKLEIK | ≤ 10 | 
10 | Humanized CD27 131A VH6/VL8-hIgG1 (antibody, V domains shown, human IgG1 constant region; also called hCD27.131A VH6VL8 hulgG1) VH: EIQLVQSGAEVKKPGASVKVSCKASGYTFTNYGMNWVKQAPGQGLKWMGWINTNTGEPTYAEEFKGRFTFTLDTSISTAYMELSSLRSEDTAVYYCAREGDAMDYWGQGTTVTVSS VL: EIVLTQSPATLSASPGERVTLSCSASSSVSYMHWYQQKPGQAPKRWIYDTSKLASGVPARFSGSGSGTDYSLTISSMEPEDFAVYYCQQWNSYPFTFGQGTKLEIK | ≤ 10 | 
